Key:
[1] = system: CN1[C@@H]2CC[C@H]1CC(OC(=O)C(CO)c1ccccc1)C2; experiment: purified protein; settings: 0.2 mM NADPH, 100 mM glycine/NaOH pH 9, 37°C
[2] = system: C/C=C1/C[C@@H](C)[C@@](C)(O)C(=O)OCC2=CCN3CC[C@@H](OC1=O)[C@@H]23; experiment: purified protein; assay type: biochemical, Zonocerus variegatus; settings: 0.2 mM NADPH, 100 mM glycine/NaOH pH 9, 37°C
From the text: (§1) photometric or radioassay N-oxygenation, initial rates on ZvPNO

[3] = system: C[C@H]1C(=O)O[C@@H]2CCN3CC=C(COC(=O)[C@](C)(O)[C@]1(C)O)[C@H]23; experiment: purified protein; assay type: biochemical, Zonocerus variegatus; settings: 0.2 mM NADPH, 100 mM glycine/NaOH pH 9, 37°C
From the text: as §1

[4] = system: CO[C@H](C)[C@](O)(C(=O)OCC1=CCN2CC[C@H](O)[C@@H]12)C(C)C; experiment: purified protein; assay type: biochemical, Zonocerus variegatus; settings: 0.2 mM NADPH, 100 mM glycine/NaOH pH 9, 37°C
From the text: as §1

ZvPNO = molecular target: T1, ZvPNO (Zonocerus variegatus, UniProt L0N8S9); assay type: biochemical; settings: 0.2 mM NADPH; 100 mM glycine/NaOH pH 9; 37°C
T1 construct: gene pno; full ORF (1242 bp, 47,793 Da subunit), no signal peptide predicted, C-terminal His6, pET28a, E. coli BL21(DE3), Ni-NTA; homodimer (91,200 Da)
From the text: as §1

| Substance | Km [1] | Vmax [1] | kcat [1] | kcat/Km [1] | Km [2] | Vmax [2] | kcat [2] | kcat/Km [2] | Km [3] | Vmax [3] | kcat [3] | kcat/Km [3] | Km [4] | Vmax [4] | kcat [4] | kcat/Km [4] | Km (ZvPNO) |
| --- | --- | --- | --- | --- | --- | --- | --- | --- | --- | --- | --- | --- | --- | --- | --- | --- | --- |
| ZvPNO (Zonocerus variegatus) | 9.83 ± 1.04 µM | 0.461 µmol/min/mg | 0.37 s⁻¹ | 37600 M⁻¹ s⁻¹ | 1.08 ± 0.07 µM | 1.24 µmol/min/mg | 0.99 s⁻¹ | 917000 M⁻¹ s⁻¹ | 11.93 ± 0.76 µM | 1.2 µmol/min/mg | 0.96 s⁻¹ | 80500 M⁻¹ s⁻¹ | 263.89 ± 10.06 µM | 0.149 µmol/min/mg | 0.12 s⁻¹ | 454 M⁻¹ s⁻¹ | – |
| phalaenopsine | – | – | – | – | – | – | – | – | – | – | – | – | – | – | – | – | 838 ± 77.4 µM |

Source: article PMC3282741, “Independent Recruitment of a Flavin-Dependent Monooxygenase for Safe Accumulation of Sequestered Pyrrolizidine Alkaloids in Grasshoppers and Moths” (PLoS ONE, 2012)
